These results are taken from patent US7125969, “ETS-related gene overexpressed in human breast and epithelial cancers” (The Regents of the University of California).

Series [1] has as its target T1, ESX (271-371, ETS DNA-binding domain) (Homo sapiens, UniProt P78545 SEQ:271-371).
T1 sequence: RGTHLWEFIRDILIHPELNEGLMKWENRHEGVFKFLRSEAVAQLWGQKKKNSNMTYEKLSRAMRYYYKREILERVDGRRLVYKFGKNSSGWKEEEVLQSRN
Put plainly: EMSA; affinity comparable to full-length. The settings on record: label: end-labeled. A general note: A gel shift assay detects complexes by their altered migration in electrophoresis.

For series [2], the target named is T2, ESX (full-length, His-tagged) (Homo sapiens, UniProt P78545 SEQ:1-371).
T2 sequence: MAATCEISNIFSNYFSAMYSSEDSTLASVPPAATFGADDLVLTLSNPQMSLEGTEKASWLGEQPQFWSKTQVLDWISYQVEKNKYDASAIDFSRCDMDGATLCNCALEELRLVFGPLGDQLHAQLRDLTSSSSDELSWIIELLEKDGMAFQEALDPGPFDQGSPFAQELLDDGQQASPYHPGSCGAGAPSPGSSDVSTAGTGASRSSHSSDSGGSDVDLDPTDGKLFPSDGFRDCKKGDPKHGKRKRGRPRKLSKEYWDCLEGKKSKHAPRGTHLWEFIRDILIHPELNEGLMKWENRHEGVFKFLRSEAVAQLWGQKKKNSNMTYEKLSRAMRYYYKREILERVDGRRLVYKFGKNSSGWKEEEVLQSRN
Description: EMSA; high-affinity sequence-specific; ~1 ng protein, 0.3 pmol probe. Conditions: tags: His-tag (pRSETA), E. coli BL21(DE3)pLysS; label: end-labeled. The protocol:
(§1) Electrophoretic mobility shift assay (EMSA) was performed as previously described (Scott et al. (1994) *J. Biol. Chem.* 269: 19848–19858), using approximately one ng of ESX protein per condition and 0.3 pmol of end-labeled TA5 probe (+cold competitor). TA5 is a duplexed 31-mer oligonucleotide from the HER2/neu promoter, extending from −50 bp to −20 bp relative to the major transcriptional start site, that includes an Ets response element.

Series [3] addresses T2, ESX (full-length, His-tagged). Description: competition; flanking mutation; relatively effective cold competitor at 50-fold excess. The settings on record: tags: His-tag (pRSETA), E. coli BL21(DE3)pLysS. On the procedure:
(§2) Five different competing unlabeled (cold) oligonucleotides containing specific mutations in the wild-type (WT) TA5 (SEQ ID NO:32) sequence, m1–m5 (SEQ ID NOs:33–37) were added at 50-fold molar excess; gel lanes containing the excess cold competitors are labeled. […] The antisense strand sequence as shown (~40 bp to ~26 bp upstream of major transcriptional start site in HER2/neu promoter) is marked with asterisk at the hypersensitivity site within Ets response element (GGAA on sense strand). FIGS. 8c and 8d show the induction of CAT activity from two different ETS-responsive reporter constructs (p3TA5-BLCAT5, pHER2-CAT) in COS cells cotransfected with an ESX expression plasmid (pcDNAI-ESX). Mutant reporter plasmids (p3TA5P-BLCAT5, pHER2m-CAT) are identical to their normal counterparts except for alterations in the Ets response element within the TA5 sequence (GGAA to GAGA and GGAA to TTAA, respectively).
as §1

Series [4] shares this target. Put plainly: competition; GGAA core mutation; fails to compete at 50-fold excess. The settings on record: tags: His-tag (pRSETA), E. coli BL21(DE3)pLysS. The protocol: as §2, §1

B1: TA5 WT (HER2/neu promoter -50 to -20) (dsDNA)
DNA 1: GGAGGAGGGCTGCTTGAGGAAGTATAAGAAT
DNA 2: ATTCTTATACTTCCTCAAGCAGCCCTCCTCC
In the case of B1, the binding result in series [1] and in series [2] was “binds” each time.

B2: TA5 m1 (dsDNA)
DNA 1: GGAGGAGGTATGCTTGAGGAAGTATAAGAAT
DNA 2: ATTCTTATACTTCCTCAAGCATACCTCCTCC
Consider B2, for which the binding result in series [3] was “binds”.

B3: TA5 m4 (dsDNA)
DNA 1: GGAGGAGGGCTGCTTGACCAAGTATAAGAAT
DNA 2: ATTCTTATACTTGGTCAAGCAGCCCTCCTCC
Take B3: the binding result in series [4] is given as “no binding”.

B4: TA5 m3 (dsDNA)
DNA 1: GGAGGAGGGCTGCTTGAGAGAGTATAAGAAT
DNA 2: ATTCTTATACTCTCTCAAGCAGCCCTCCTCC
On to B4, for which the binding result in series [4] is listed as “no binding”.

B5: TA5 m5 (dsDNA)
DNA 1: GGAGGAGGGCTGCTTGAGGAAGCATAAGAAT
DNA 2: ATTCTTATGCTTCCTCAAGCAGCCCTCCTCC
For B5, the binding result in series [3] was “binds”.

B6: TA5 m2 (dsDNA)
DNA 1: GGAGGAGGGCTGCTTGCGGAAGTATAAGAAT
DNA 2: ATTCTTATACTTCCGCAAGCAGCCCTCCTCC
For B6, the binding result in series [3] is reported as “binds”.
